# Like-named read-outs stand apart in the source and are kept apart here.
# B1: mAb 5I17 (antibody, V domains shown)
# VH: EVQLVESGGGVVQPGRSLRLSCAASGFSFSNYAMHWVRQAPGKGLEWVALISFDGSDKYYADSVKGRFTMSRDNSKNTLYLQMNSLRAEDTAVYYCARDEPYCGGDCFAFDVWGQGTMVTVS
# VL: DIQLTQSPSSLSASAGDRVSMTCRASQIISSSLNWYQQKPGKAPKLLIYAASNLQSGVPSRFSGSGSGTDFTLTISSLQPEDFATYYCQQSYSTPPELTFGGGTKVDIKR
# Legend:
# Assay in all cases: ELISA, supernate
# [1] = target: first-generation H1 LAH construct H1frThrST (Influenza A virus (H1))
# [2] = target: first-generation H3 LAH construct H3frThrST (Influenza A virus (H3))
# [3] = target: first-generation H1 LAH construct H1frThrST (Influenza A virus (H1)); remark: listed apart in the source
binder,measurement,setting,value
B1,OD,[1],0.07 OD
same,OD,[2],0.07 OD
same,OD,[3],0.078 OD
